In test [1] the target is T1, HuCD3E (Homo sapiens, UniProt P07766 23-126, limits assumed).
T1 construct: Recombinant analyte in SPR and antigen in ELISA; also called human CD3; human CD3 epsilon
The test can be described thus: SPR, Biacore 8K; CD3 Affinity column: Hi.

Test [2] addresses T1, HuCD3E. The test can be described thus: SPR, Biacore 8K; CD3 Affinity column: Med; lower end of the range. (Surface plasmon resonance follows binding to a sensor surface in real time, without labels.)
Test [3] deals with T1, HuCD3E. The test can be described thus: SPR, Biacore 8K; CD3 Affinity column: Med; upper end of the range.
The target in test [4] is T1, HuCD3E. The test can be described thus: SPR, Biacore 8K; CD3 Affinity column: Med; lower end of the range. The source holds these as a separate data set.
Test [5] concerns the target T1, HuCD3E. The test can be described thus: SPR, Biacore 8K; CD3 Affinity column: Med; upper end of the range. The method, then: (§1) Initially, the affinity measurement of the anti-CD3 clones were determined using a Surface Plasmon Resonance (SPR) biosensor, Biacore 8K (GE Healthcare). The equilibrium dissociation constant (KD) was calculated from the ratio of kd over ka. To determine the contribution of a specific residue to antibody affinity and expression, paratope mapping was performed by screening of NNK libraries. In brief, the VH and VL of the parental antibody were searched by using NCBI Ig-Blast (www.ncbi.nlm.nih.gov/projects/igblast/) and CDRs were defined by the KABAT delineation system. All residues within CDRs were defined and mutated by NNK method. Each individual NNK library was generated per residue based on the FASEBA platform with a theoretical diversity at 20. The DNA encoding both heavy chain and light chain were inserted into a mammalian expression vector, transfected into CHO-S cells, and stable clones of highest expression were selected. Supernatants were collected from shaker flasks and purified on protein A affinity chromatography.
(§2) Affinity ranking. Binding between the parental and affinity-tuned bispecific antibodies and human and cyno target proteins (HER2 and CD3) was validated by ELISA, and a Biacore 8K was used to study the kinetics of the interaction between the antigen and the bispecific antibodies.
The source holds these as a separate data set.

The target of test [6] is T1, HuCD3E. The test can be described thus: SPR, Biacore 8K; antibody captured, CD3E as analyte. The method, then: as §1, §2
Another test has as its target T2, CynoCD3E (cyno, UniProt Q95LI5 22-117, limits assumed).
T2 construct: Recombinant analyte in SPR and antigen in ELISA; The construct is not described; also called cynomolgus CD3 epsilon
T2 sequence (looked up): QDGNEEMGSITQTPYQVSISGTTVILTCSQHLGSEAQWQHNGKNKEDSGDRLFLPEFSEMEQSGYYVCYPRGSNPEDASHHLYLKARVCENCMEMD
Described as above. Here is the method:
as §1, §2

Where only a bound is given, the exact number is not on record here.

T1 sequence (P07766 23-126 limits assumed): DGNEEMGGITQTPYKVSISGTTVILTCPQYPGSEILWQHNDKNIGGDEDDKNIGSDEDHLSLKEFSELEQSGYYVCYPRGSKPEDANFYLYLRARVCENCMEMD

B1: ABP100s.12.5 (antibody, V domains shown)
VH: EVQLLESGGGLVQPGGSLRLSCAASGFTFNTYAMNWVRQAPGKCLEWVSRIRSKYNNYATYYADSVKDRFTISRDNSKNTLYLQMNSLRAEDTAVYYCAKHGNFGNSYVSWFAYWGQGTTVTVSS
VL: QAVVTQEPSLTVSPGGTVTLTCRSSTGAVTTSNYANWFQQKPGQAPRTLIYGTNKRAPWTPARFSGSLLGGKAALTLSGAQPEDEAEYYCALWYSNLWVFGCGTKLTVL
With B1, the Kd in the test with HuCD3E [1] is < 10 nM.

B2: 32G4-V8-v5.2 (antibody, V domains shown)
VH: EVQLVESGGGLVQPGGSLKLSCAASGFTFNTYAMNWVRQAPGKGLEWVARIRSKYNNYATYKADSVKDRFTISRDDSKNTAYLQMNSLKTEDTAVYYCVRHGNFGNSYVSWFAYWGQGTLVTVSS
VL: QTVVTQEPSLTVSPGGTVTLTCRSSTGAVTTSNYANWVQQKPGQAFRGLIGGTNKRAPGVPARFSGSLLGGKAALTLSGVQPEDEAIYFCALWYSNLWVFGGGTKLTVL
For the molecule B2, the values for the dissociation constant Kd in the test with HuCD3E [2] and with HuCD3E [3] were ≥ 10 nM and ≤ 100 nM, respectively.

B3: ABP100s.11.5 (antibody, V domains shown)
VH: EVQLLESGGGLVQPGGSLRLSCAASGFTFNTYAMNWVRQAPGKGLEWVSRIRSKYNNYATYYADSVKDRFTISRDNSKNTLYLQMNSLRAEDTAVYYCAKHGNFGNSYVSWFAYWGQGTTVTVSS
VL: QAVVTQEPSLTVSPGGTVTLTCRSSTGAVTTSNYANWFQQKPGQAPRTLIYGTNKRAPWTPARFSGSLLGGKAALTLSGAQPEDEAEYYCALWYSNLWVFGGGTKLTVL
For B3, the Kd with HuCD3E [1] was < 10 nM.

B4: ABP100s.10.5.3 (antibody, V domains shown)
VH: EVQLVESGGGLVQPGGSLKLSCAASGFTFNTYAMNWVRQAPGKCLEWVARIRSKYNNYATYYADKVKDRFTISRDDSKNTAYLQMNSLKTEDTAVYYCVRHGNFGNSYVSWFAYWGQGTLVTVSS
VL: QTVVTQEPSLTVSPGGTVTLTCRSSTGAVTTSNYANWVQQKPGQAFRGLIGGTNKRAPGVPARFSGSLLGGKAALTLSGVQPEDEAIYFCALWYSNLWVFGCGTKLTVL
Turning to B4, the values for the Kd with HuCD3E [4] and with HuCD3E [5] were ≥ 10 nM and ≤ 100 nM, respectively.

B5: ABP100s.10.6.3 (antibody, V domains shown)
VH: EVQLVESGGGLVQPGGSLKLSCAASGFTFNTYAMNWVRQAPGKCLEWVARIRSKYNNYATYYADKVKDRFTISRDDSKNTAYLQMNSLKTEDTAVYYCVRHGNFGNSYVSWFAYWGQGTLVTVSS
VL: QTVVTQEPSLTVSPGGTVTLTCRSSTGAVTTSNYANWVQQKPGQAFRGLIGGTNKRAPGVPARFSGSLLGGKAALTLSGVQPEDEAIYFCALWYSNLWVFGCGTKLTVL
For B5, the results for the dissociation constant Kd with HuCD3E [4] and with HuCD3E [5] were ≥ 10 nM and ≤ 100 nM, respectively.

B6: 32G4-V8-v5.4 (antibody, V domains shown)
VH: EVQLVESGGGLVQPGGSLKLSCAASGFTFNTYAMNWVRQAPGKGLEWVARIRSKYNNYATYYWDSVKDRFTISRDDSKNTAYLQMNSLKTEDTAVYYCVRHGNFGNSYVSWFAYWGQGTLVTVSS
VL: QTVVTQEPSLTVSPGGTVTLTCRSSTGAVTTSNYANWVQQKPGQAFRGLIGGTNKRAPGVPARFSGSLLGGKAALTLSGVQPEDEAIYFCALWYSNLWVFGGGTKLTVL
With B6, the dissociation constant Kd with HuCD3E [2] was ≥ 10 nM; in the test with HuCD3E [3], ≤ 100 nM.

B7: 32G4-V8-v5.3 (antibody, V domains shown)
VH: EVQLVESGGGLVQPGGSLKLSCAASGFTFNTYAMNWVRQAPGKGLEWVARIRSKYNNYATYYADKVKDRFTISRDDSKNTAYLQMNSLKTEDTAVYYCVRHGNFGNSYVSWFAYWGQGTLVTVSS
VL: QTVVTQEPSLTVSPGGTVTLTCRSSTGAVTTSNYANWVQQKPGQAFRGLIGGTNKRAPGVPARFSGSLLGGKAALTLSGVQPEDEAIYFCALWYSNLWVFGGGTKLTVL
As to B7, the figures for the equilibrium dissociation constant (Kd) with HuCD3E [2] and in the test with HuCD3E [3] were ≥ 10 nM and ≤ 100 nM, respectively.

B8: ABP100s.10.6.4 (antibody, V domains shown)
VH: EVQLVESGGGLVQPGGSLKLSCAASGFTFNTYAMNWVRQAPGKCLEWVARIRSKYNNYATYYWDSVKDRFTISRDDSKNTAYLQMNSLKTEDTAVYYCVRHGNFGNSYVSWFAYWGQGTLVTVSS
VL: QTVVTQEPSLTVSPGGTVTLTCRSSTGAVTTSNYANWVQQKPGQAFRGLIGGTNKRAPGVPARFSGSLLGGKAALTLSGVQPEDEAIYFCALWYSNLWVFGCGTKLTVL
Consider B8, for which the Kd with HuCD3E [4] was ≥ 10 nM; in the test with HuCD3E [5], ≤ 100 nM.

B9: 47D10-V7-v5.4 (antibody, V domains shown)
VH: EVQLVESGGGLVQPGGSLKLSCAASGFTFNTYAMNWVRQAPGKGLEWVARIRSKYNNYATYYWDSVKDRFTISRDDSKNTAYLQMNSLKTEDTAVYYCVRHGNFGNSYVSWFAYWGQGTLVTVSS
VL: QTVVTQEPSLTVSPGGTVTLTCRSSTGAVTTSNYANWVQQKPGQAFRGLIGGTNKRAPGVPARFSGSLLGGKAALTLSGVQPEDEAIYFCALWYSNLWVFGGGTKLTVL
As to B9, the Kd is ≥ 10 nM in the test with HuCD3E [2] and ≤ 100 nM in the test with HuCD3E [3].

B10: ABP100s.10.6.2 (antibody, V domains shown)
VH: EVQLVESGGGLVQPGGSLKLSCAASGFTFNTYAMNWVRQAPGKCLEWVARIRSKYNNYATYKADSVKDRFTISRDDSKNTAYLQMNSLKTEDTAVYYCVRHGNFGNSYVSWFAYWGQGTLVTVSS
VL: QTVVTQEPSLTVSPGGTVTLTCRSSTGAVTTSNYANWVQQKPGQAFRGLIGGTNKRAPGVPARFSGSLLGGKAALTLSGVQPEDEAIYFCALWYSNLWVFGCGTKLTVL
B10: the dissociation constant (Kd) was ≥ 10 nM with HuCD3E [4] and ≤ 100 nM with HuCD3E [5].

B11: 47D10-V7-v5.2 (antibody, V domains shown)
VH: EVQLVESGGGLVQPGGSLKLSCAASGFTFNTYAMNWVRQAPGKGLEWVARIRSKYNNYATYKADSVKDRFTISRDDSKNTAYLQMNSLKTEDTAVYYCVRHGNFGNSYVSWFAYWGQGTLVTVSS
VL: QTVVTQEPSLTVSPGGTVTLTCRSSTGAVTTSNYANWVQQKPGQAFRGLIGGTNKRAPGVPARFSGSLLGGKAALTLSGVQPEDEAIYFCALWYSNLWVFGGGTKLTVL
As for B11, the equilibrium dissociation constant (Kd) is ≥ 10 nM in the test with HuCD3E [2] and ≤ 100 nM with HuCD3E [3].

B12: ABP100s.10.5.4 (antibody, V domains shown)
VH: EVQLVESGGGLVQPGGSLKLSCAASGFTFNTYAMNWVRQAPGKCLEWVARIRSKYNNYATYYWDSVKDRFTISRDDSKNTAYLQMNSLKTEDTAVYYCVRHGNFGNSYVSWFAYWGQGTLVTVSS
VL: QTVVTQEPSLTVSPGGTVTLTCRSSTGAVTTSNYANWVQQKPGQAFRGLIGGTNKRAPGVPARFSGSLLGGKAALTLSGVQPEDEAIYFCALWYSNLWVFGCGTKLTVL
Take B12: the Kd was ≥ 10 nM with HuCD3E [4] and ≤ 100 nM with HuCD3E [5].

B13: ABP100s.10.5.2 (antibody, V domains shown)
VH: EVQLVESGGGLVQPGGSLKLSCAASGFTFNTYAMNWVRQAPGKCLEWVARIRSKYNNYATYKADSVKDRFTISRDDSKNTAYLQMNSLKTEDTAVYYCVRHGNFGNSYVSWFAYWGQGTLVTVSS
VL: QTVVTQEPSLTVSPGGTVTLTCRSSTGAVTTSNYANWVQQKPGQAFRGLIGGTNKRAPGVPARFSGSLLGGKAALTLSGVQPEDEAIYFCALWYSNLWVFGCGTKLTVL
For the molecule B13, the Kd in the test with HuCD3E [4] is ≥ 10 nM; with HuCD3E [5], ≤ 100 nM.

B14: VH2 (SEQ ID NO: 21) + VL6 (SEQ ID NO: 19) (antibody, V domains shown)
VH: EVQLVESGGGLVQPGGSLKLSCAASGFTFNTYAMNWVRQASGKGLEWVARIRSKYNNYATYYADSVKDRFTISRDDSKNTAYLQMNSLKTEDTAVYYCVRHGNFGNSYVSWFAYWGQGTLVTVSS
VL: QTVVTQEPSLTVSPGGTVTLTCRSSTGAVTTSNYANWVQQKPGQAFRGLIGGTNKRAPGVPARFSGSLLGGKAALTLSGVQPEDEAIYFCALWYSNLWVFGGGTKLEIK
notes: Humanized SP34 anti-CD3 variant; the text around it speaks of full-length bispecific antibodies; The sample heated at 42° C. is the same molecule and is marked under assay; also called VH2 + VL6
In the test with HuCD3E [6], B14 showed a Kd of 1.01 nM, an off-rate (koff) of 0.000357 s⁻¹ and an on-rate (kon) of 352000 M⁻¹ s⁻¹. Further, in the test with CynoCD3E, the Kd is 1.7 nM, the off-rate (koff) turned out to be 0.000821 s⁻¹ and the on-rate (kon) was 483000 M⁻¹ s⁻¹.

B15: 47D10-V7-v5.3 (antibody, V domains shown)
VH: EVQLVESGGGLVQPGGSLKLSCAASGFTFNTYAMNWVRQAPGKGLEWVARIRSKYNNYATYYADKVKDRFTISRDDSKNTAYLQMNSLKTEDTAVYYCVRHGNFGNSYVSWFAYWGQGTLVTVSS
VL: QTVVTQEPSLTVSPGGTVTLTCRSSTGAVTTSNYANWVQQKPGQAFRGLIGGTNKRAPGVPARFSGSLLGGKAALTLSGVQPEDEAIYFCALWYSNLWVFGGGTKLTVL
For B15, the results for the Kd in the test with HuCD3E [2] and in the test with HuCD3E [3] were ≥ 10 nM and ≤ 100 nM, respectively.

Usually Kd stands for the equilibrium constant for the complex coming apart. Read a high Kd as a looser complex. As usually defined, the koff is a measure of how fast the partners let go of each other. In general, kon refers to the rate constant with which the complex forms.
